From article PMC11446229, “CyaY and TusA regulate ISC- and SUF-mediated L-cysteine desulfurase activity†” (RSC Chemical Biology, 2024) come the findings set out here.

The term stoichiometry N denotes the number of molecules, sites or subunits per partner or assembly. By Kd is commonly meant the free concentration of one partner at which half of the binding sites on the other are occupied at equilibrium, for simple one-to-one binding.

Some results are limits rather than exact numbers.

To fix the notation:
T1: SufSE complex (SufS dimer with bound SufE), formed before CyaY was added (E. coli, UniProt P77444 1-406; P76194 1-138)
T1 construct: SufS, L-cysteine desulfurase of E. coli, as the chain of m4; SufE of E. coli, as the chain of m5; A mixture of complexes: mainly one or two SufE on each SufS dimer, with some (SufE)3(SufS)2 before CyaY was added; In the activity assay 30 uM SufS plus 90 uM SufE; also called SufE–SufS complexes; SufS/SufE; source: mixed from SufS and SufE, each purified from E. coli BL21 DE3; copies: 2 +
T1 sequence (looked up) 1: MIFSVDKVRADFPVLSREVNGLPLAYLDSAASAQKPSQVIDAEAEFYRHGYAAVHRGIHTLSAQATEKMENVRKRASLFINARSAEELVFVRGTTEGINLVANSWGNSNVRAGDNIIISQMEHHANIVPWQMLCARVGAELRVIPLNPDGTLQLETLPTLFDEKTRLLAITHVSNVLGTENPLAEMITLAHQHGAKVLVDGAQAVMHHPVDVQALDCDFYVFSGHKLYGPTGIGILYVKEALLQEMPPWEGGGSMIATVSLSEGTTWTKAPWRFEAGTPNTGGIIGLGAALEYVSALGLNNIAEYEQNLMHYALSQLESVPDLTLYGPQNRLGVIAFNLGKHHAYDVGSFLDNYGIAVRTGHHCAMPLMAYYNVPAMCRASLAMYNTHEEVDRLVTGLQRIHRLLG
T1 sequence (looked up) 2: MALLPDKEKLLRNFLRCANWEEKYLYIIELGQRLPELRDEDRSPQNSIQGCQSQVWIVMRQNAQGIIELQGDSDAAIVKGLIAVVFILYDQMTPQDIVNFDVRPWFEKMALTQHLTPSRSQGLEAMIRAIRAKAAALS

B1: SufS, cysteine desulfurase of the SUF system (enzyme, E. coli, UniProt P77444 1-406, looked up)
chain: T1 sequence (looked up) 1
notes: SufS, L-cysteine desulfurase of E. coli; Seen by native MS as a dimer with associated PLP cofactors (89 956 Da; predicted 89 892 Da + (S0)2); Surmise: the predicted mass is larger than two natural chains plus two PLP, so a few residues may be left on each chain after thrombin cleavage; also called (SufS)2; dimeric SufS; source: E. coli BL21 DE3, plasmid pSL213, purified, (His)6-tag cleaved with …
B2: SufE (natural protein, E. coli, UniProt P76194 1-138, looked up)
chain: T1 sequence (looked up) 2
notes: SufE, sulfur acceptor of SufS, E. coli; Tag cleavage is told only of SufS and CyaY; Surmise: the printed mass interval of ~16.7 kDa for each SufE is larger than the natural chain, so the tag may have been kept; also called SufE-(His)6; source: E. coli BL21 DE3, plasmid pET15b, purified (previously published procedures)
B3: CyaY, the frataxin homolog of Escherichia coli (natural protein, E. coli, UniProt P27838 1-106, looked up)
chain: MNDSEFHRLADQLWLTIEERLDDWDGDSDIDCEINGGVLTITFENGSKIIINRQEPLHQVWLATKQGGYHFDLKGDEWICDRSGETFWDLLEQAATQQAGETVSFR
notes: CyaY, frataxin homolog of E. coli; Two plasmids are named (pET15b or pMB10); also called CyaY-(His)6; source: E. coli BL21 DE3, plasmid pET15b or pMB10, purified, (His)6-tag cleaved with thrombin

Data set [1] deals with the molecule itself. As to the kind of experiment: native MS; desulfurase alone, ~8 uM (~4 uM dimer), 250 mM ammonium acetate pH 8.0, deconvoluted spectrum.
Data set [2] addresses B1. The experiment in a line: native MS; SufS (~8 uM, ~4 uM dimer) titrated with SufE; 250 mM ammonium acetate pH 8; relative intensities fitted to a sequential binding model (Dynafit). Conditions: both partners purified.
Data set [3] concerns the target T2, IscS, cysteine desulfurase of the ISC system (E. coli, UniProt P0A6B7 1-404).
T2 construct: IscS, L-cysteine desulfurase of E. coli; Seen by native MS as a dimer with associated PLP cofactors (90 662 Da; predicted 90 642 Da + Na); No tag is named for this construct; Surmise: the predicted mass fits two untagged whole chains plus two PLP; also called (IscS)2; dimeric IscS; source: E. coli BL21 DE3, plasmid pSL209, purified (previously published procedures)
The experiment in a line: native MS; IscS (8 uM, 4 uM dimer) pre-treated with 0.5 equivalents of TusA (4 uM), then titrated with CyaY; 250 mM ammonium acetate pH 8; relative intensities fitted to a simple competition binding model (Dynafit). Particulars: both partners purified.

The target in data set [4] is T1, SufSE complex (SufS dimer with bound …). As to the kind of experiment: native MS; pre-formed SufSE complexes treated with a 4-fold excess of CyaY and titrated with CyaY up to about 35 uM; 250 mM ammonium acetate pH 8; only the first part of the titration measured, Kd an approximation. Particulars: both partners purified.

Consider B1, for which the “stoichiometry N” value in data set [1] turned out to be 2.
With B2, in data set [2], the “Kd of the first and second SufE on the SufS dimer (high affinity site)” value is about 8 µM; the “Kd of the third and fourth SufE on the SufS dimer (low affinity site)” value is about 71 µM; the “stoichiometry N” value is at most 4 per SufS dimer.
In the case of B3, in data set [3], the Kd was about 26 µM and the “stoichiometry N” value was at most 2 per IscS dimer. Further, in data set [4], the Kd is about 70 µM.
